Experimental data reported in paper doi:10.1101/2022.09.07.506877.

Target: Sb-gRAMP (type III-E CRISPR effector, Cas7-11);TPR-CHAT (caspase-like peptidase) (Candidatus "Scalindua …, UniProt A0A0B0EGF3;A0A0B0EKL4 1-1717;1-716, |)
Assay: cryo-EM structure

B1: crRNA (37 nt) / target ssRNA (18 nt as modelled) (structured_RNA)
RNA 1: GGACUUAAUGUCACGGUACCCAAUUUUCUGCCCCGGA
RNA 2: UCCGGGGCAGAAAAUUGG
  binding result: binds
